Assay results reported in patent US20240293518A1 (HEALTH RESEARCH, published 2024).

T1: ErbB4/ECD-Fc, chimera of the ECD (Gln26-Arg649) of human ErbB4 and the Fc (human, UniProt Q15303 26-649)
T1 construct: range 26-649; Bought from R&D Systems; also called human ErbB4/ECD-Fc; R&D Systems 1131-ER-050; not shown: Fc (of human IgG1)
T1 sequence (looked up): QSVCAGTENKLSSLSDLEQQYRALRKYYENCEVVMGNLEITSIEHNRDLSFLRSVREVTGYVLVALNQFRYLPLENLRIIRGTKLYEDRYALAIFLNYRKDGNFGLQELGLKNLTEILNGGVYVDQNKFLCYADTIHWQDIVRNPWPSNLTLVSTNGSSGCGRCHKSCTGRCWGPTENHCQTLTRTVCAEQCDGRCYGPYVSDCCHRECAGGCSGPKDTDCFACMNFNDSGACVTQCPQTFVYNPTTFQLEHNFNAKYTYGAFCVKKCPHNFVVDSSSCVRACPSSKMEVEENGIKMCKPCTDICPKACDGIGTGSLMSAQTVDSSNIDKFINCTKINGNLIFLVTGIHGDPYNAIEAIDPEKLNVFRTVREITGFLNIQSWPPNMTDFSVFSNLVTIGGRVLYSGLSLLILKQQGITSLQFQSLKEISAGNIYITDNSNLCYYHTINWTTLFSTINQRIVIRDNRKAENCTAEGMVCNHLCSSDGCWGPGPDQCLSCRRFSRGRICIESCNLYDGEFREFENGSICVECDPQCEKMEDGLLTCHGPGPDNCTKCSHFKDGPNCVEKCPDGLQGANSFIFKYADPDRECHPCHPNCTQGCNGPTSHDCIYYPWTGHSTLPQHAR


What was measured:
[1] = target: ErbB2/delD2, human ErbB2 with deletion of ECD subdomain 2 (deletion of amino acids 196-320) (human) (UniProt P04626); assay: ELISA; panel e; cell lysates; conditions: ligand
[2] = target: ErbB2/delD4, human ErbB2 with deletion of ECD subdomain 4 (deletion of amino acids 489-560) (human) (UniProt P04626); assay: ELISA; panel e; cell lysates; conditions: ligand
[3] = target: T2, ErbB3/ECD-Fc, chimera of the ECD (Ser20-Thr643) of human ErbB3 and Fc (human, UniProt P21860 20-643); assay: pull-down with protein G-sepharose, SDS-PAGE, silver stain
T2 construct: range 20-643; Bought from R&D Systems; also called human ErbB3/ECD-Fc; R&D Systems 348-RB-050; not shown: Fc (of human IgG1)
Protocol: (§1) Similar protein expression levels of ErbB2 and its mutants were detected in CHO-K1 cells transiently transfected with the plasmids (FIG. 1d). An equal amount of ErbB2 and its mutants, based on western blot quantification, were used in the same ELISA mentioned above. […] Thus, PEPD bound to D3, but D2 and D4, the latter in particular, may facilitate PEPD binding to ErbB2.
(§2) Immunoprecipitation. PEPD was incubated with ErbB2/ECD-Fc, ErbB3/ECD-Fc, ErbB4/ECD-Fc or Fc in binding buffer for 2 h at 37° C., followed by pull down with protein G-sepharose beads. […] For detection of direct and specific binding of PEPD or NRG-1 to ErbB2, ErbB3 or ErbB4, recombinant human PEPD or NRG-1 was incubated with recombinant human ErbB2/ECD-Fc, recombinant human ErbB3/ECD-Fc, recombinant human ErbB4/ECD-Fc or recombinant human Fc in 0.4 ml binding buffer. All solutions were incubated for 2 h at 37° C., followed by incubation with protein G-sepharose beads for 1 h at room temperature. […] In experiments using whole cell lysates, cells were lysed in M-PER buffer supplemented with a proteinase inhibitor mix (Roche Applied Science), and the lysates were incubated with a specific antibody overnight at 4° C., followed by pull down by protein G-agarose. […]

[4] = target: T1, ErbB4/ECD-Fc, chimera of the ECD …; assay: as above
Protocol: as §1, §2

[5] = target: T3, Human ErbB2, wild type, full length (human, UniProt P04626 23-1255); assay: ELISA; ErbB2 captured from lysates of ErbB2-transfected CHO-K1 cells by an antibody to its cytoplasmic tail, His-tagged PEPD detected with anti-His
T3 construct: whole, on cells; Three sources: CHO-K1 cells transiently transfected with pCMV6-XL5-ERBB2, CHO-K1/ErbB2 cells expressing it stably, and BT-474 cells where it is endogenous; The ELISA and the immunoprecipitations used cell lysates; The other assays used living cells; also called WT-ErbB2; Her2
From the text: as §1, with “Overexpression of human ErbB2 in CHO-K1 cells was readily achieved by gene transfection (FIG. 1b). […] Next, we removed the four ECD subdomains of human ErbB2 one at a time (FIG. 1d), using the ErbB2-expressing plasmid pCMV6-XL5-ERBB2 as a template. Similar” for “Similar”
(§3) ELISA-based measurement of PEPD and PEPD binding to ErbB2. To measure PEPD binding to human ErbB2 or its deletion mutants, ELISA plates were coated overnight at 4° C. with 100 μl/well of an ErbB2 antibody (binding to the cytoplasmic tail of ErbB2) at 10 μg/ml. After washing the wells three times with PBST, residual protein binding sites in the wells were blocked by incubation for 2 h at room temperature with 300 μl/well of 1% BSA in PBS. […] After three washes with PBST, 100 μl of a biotin-conjugated anti-His antibody (1:10,000 dilution; note that PEPD is His-tagged) was added to each well and incubated for 2 h at room temperature.

[6] = target: T4, ErbB2/delD4, human ErbB2 with deletion of ECD subdomain 4 (deletion of amino acids 489-560) (human, UniProt P04626 23-1255); assay: ELISA, equal amounts of ErbB2 and mutants from lysates of transfected CHO-K1 cells
T4 construct: whole, on cells; Transiently expressed in CHO-K1 cells; also called pCMV6-XL5-ERBB2/delD4
From the text: as §1, with “Overexpression of human ErbB2 in CHO-K1 cells was readily achieved by gene transfection (FIG. 1b). […] Next, we removed the four ECD subdomains of human ErbB2 one at a time (FIG. 1d), using the ErbB2-expressing plasmid pCMV6-XL5-ERBB2 as a template. Similar” for “Similar”
as §3

[7] = target: T5, ErbB2/delD2, human ErbB2 with deletion of ECD subdomain 2 (deletion of amino acids 196-320) (human, UniProt P04626 23-1255); assay: as above
T5 construct: whole, on cells; Transiently expressed in CHO-K1 cells; also called pCMV6-XL5-ERBB2/delD2
From the text: as §1, with “Overexpression of human ErbB2 in CHO-K1 cells was readily achieved by gene transfection (FIG. 1b). […] Next, we removed the four ECD subdomains of human ErbB2 one at a time (FIG. 1d), using the ErbB2-expressing plasmid pCMV6-XL5-ERBB2 as a template. Similar” for “Similar”
as §3

[8] = target: T6, ErbB2 p95 fragment (minus ECD) (human, UniProt P04626 648-1255, limits assumed); assay: co-immunoprecipitation with a PEPD antibody from lysates of APMA-treated CHO-K1/ErbB2 cells, western blot
T6 construct: domain: trans-membrane and intracellular regions (p95 fragment, minus ECD); Generated in CHO-K1/ErbB2 cells by 1 mM APMA for 0.25 h and tested in cell lysates; also called trans-membrane and intracellular regions of ErbB2
Protocol: FIG. 8. Data showing validation of a cell line used in the present disclosure, and lack of binding of PEPD to the transmembrane and intracellular regions of human ErbB2. (a) CHO-K1 cells were transiently transfected with an ErbB2-expressing plasmid (pCMV6-XL5-ERBB2) or the empty plasmid for 24 h. Human bladder cancer RT-4 cells and human breast cancer MCF-7 cells were untreated and were used as positive controls for ErbB1, ErbB3 and ErbB4. Cell lysates were analyzed by western blotting. GAPDH is a loading control. (b) CHO-K1 cells stably expressing ErbB2 (CHO-K1/ErbB2 cells) were treated with 1 mM APMA for 0.25 h. Cell lysates were then prepared and analyzed by western blotting (the first lane on the right). The same cell lysates were mixed with 1 μM PEPD, which were then incubated with a PEPD antibody or an isotype-matched IgG, pulled down with protein G-agarose, and analyzed by western blotting.
Immunoprecipitation. PEPD was incubated with ErbB2/ECD-Fc, ErbB3/ECD-Fc, ErbB4/ECD-Fc or Fc in binding buffer for 2 h at 37° C., followed by pull down with protein G-sepharose beads. The immunoprecipitates were washed with IP washing buffer and analyzed by western blotting. […] The immunoprecipitates were washed with IP washing buffer and analyzed by western blotting.

T2 sequence (P21860 20-643 limits assumed, change not shown): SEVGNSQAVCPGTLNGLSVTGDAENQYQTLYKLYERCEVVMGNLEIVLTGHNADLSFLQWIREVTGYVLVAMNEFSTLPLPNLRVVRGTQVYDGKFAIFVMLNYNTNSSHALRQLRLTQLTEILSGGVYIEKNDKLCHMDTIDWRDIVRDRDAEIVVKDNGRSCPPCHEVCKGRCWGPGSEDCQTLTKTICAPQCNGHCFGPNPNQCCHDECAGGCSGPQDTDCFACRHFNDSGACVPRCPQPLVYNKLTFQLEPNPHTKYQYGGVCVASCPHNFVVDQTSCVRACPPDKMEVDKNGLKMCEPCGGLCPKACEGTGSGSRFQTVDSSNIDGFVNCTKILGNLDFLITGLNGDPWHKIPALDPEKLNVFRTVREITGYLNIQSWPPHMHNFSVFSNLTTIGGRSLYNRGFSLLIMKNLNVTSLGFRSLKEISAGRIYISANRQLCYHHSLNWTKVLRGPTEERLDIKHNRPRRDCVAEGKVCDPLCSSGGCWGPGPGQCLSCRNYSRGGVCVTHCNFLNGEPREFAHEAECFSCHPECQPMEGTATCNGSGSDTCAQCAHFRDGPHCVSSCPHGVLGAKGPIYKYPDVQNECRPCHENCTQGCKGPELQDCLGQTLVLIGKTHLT

Row | Molecule | Kd [1] | Kd [2] | binding result [3] | binding result [4] | Kd [5] | fold reduction of binding affinity against wild-type ErbB2 [6] | fold reduction of binding affinity against wild-type ErbB2 [7] | binding result [8]
1 | Recombinant human PEPD (peptidase D, prolidase), wild type, 6×His tagged at the carboxy terminus (from UniProt P12955 1-493) | 25.9 nM | 372 nM |  |  |  |  |  | 
2 | Recombinant human PEPD (peptidase D, prolidase), wild type, 6×His tagged at the carboxy terminus (ligand, Made in bacteria (pBAD/Thio-TOPO, without the N-terminal Thio) and purified on nickel; also called WT-PEPD; rhPEPD) MAAATGPSFWLGNETLKVPLALFALNRQRLCERLRKNPAVQAGSIVVLQGGEETQRYCTDTGVLFLQESFFHWAFGVTEPGCYGVIDVDTGKSTLFVPRLPASHATWMGKIHSKEHFKEKYAVDDVQYVDEIASVLTSQKPSVLLTLRGVNTDSGSVCREASFDGISKFEVNNTILHPEIVESRVFKTDMELEVLRYTNKISSEAHREVMKAVKVGMKEYGLESLFEHYCYSRGGMRHSSYTCICGSGENSAVLHYGHAGAPNDRTIQNGDMCLFDMGGEYYSVASDITCSFPRNGKFTADQKAVYEAVLLSSRAVMGAMKPGDWWPDIDRLADRIHLEELAHMGILSGSVDAMVQAHLGAVFMPHGLGHFLGIDVHDVGGYPEGVERIDEPGLRSLRTARHLQPGMVLTVEPGIYFIDHLLDEALADPARASFLNREVLQRFRGFGGVRIEEDVVVIDSGIELLTCVPRTVEEIEACMAGCDKAFTPFSGPKHHHHHH |  |  | no binding (tested: PEPD 1 µM with 0.04 µM ErbB3/ECD-Fc) | no binding (tested: PEPD 1 µM with 0.04 µM ErbB4/ECD-Fc) | 7.3 nM | 51 fold | 3.5 fold | no binding (tested: 1 µM PEPD)
